The text below walks through data of article PMC5437177.

This series deals with T1, ABI5 (Arabidopsis thaliana) (UniProt Q9SJN0).
T1 sequence: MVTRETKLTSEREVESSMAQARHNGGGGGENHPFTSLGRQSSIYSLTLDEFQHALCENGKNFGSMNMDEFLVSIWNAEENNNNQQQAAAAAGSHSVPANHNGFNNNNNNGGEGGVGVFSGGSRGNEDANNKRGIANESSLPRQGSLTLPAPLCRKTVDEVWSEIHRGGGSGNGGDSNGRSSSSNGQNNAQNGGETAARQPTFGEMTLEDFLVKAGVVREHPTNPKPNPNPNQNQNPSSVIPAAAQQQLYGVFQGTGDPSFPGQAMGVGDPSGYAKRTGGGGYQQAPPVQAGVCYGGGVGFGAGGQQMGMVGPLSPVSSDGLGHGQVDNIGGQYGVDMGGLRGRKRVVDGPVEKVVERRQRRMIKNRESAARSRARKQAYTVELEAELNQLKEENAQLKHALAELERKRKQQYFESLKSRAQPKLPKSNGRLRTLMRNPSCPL
As to the kind of experiment: EMSA. Particulars: 25 mM HEPES pH 8.0, 40 mM KCl, 5 mM MgCl2, 1 mM DTT, 1 mM EDTA, 8% glycerol, 1 ug/uL poly(dI-dC), 30 min room temperature; 5% native PAGE at 4 C. In general terms: A gel shift assay detects complexes by their altered migration in electrophoresis.
On to “TCCTGAAATGGATCAACAATTGTCTAATTATGGTATAGTATCTGGCGAAATCAAAGACGATATCATCCACTTTTAATTAGTTTGACTATTAATACGAGGATTATCATTTGGATAAGGATTAACAAAGACAAAACACATACGTGTTTTGGTGTTGAGCTAAAATAAGATATTTTGGCTCTCGCTATAAA (double strand) [pCAT1 box1 mutation probe]”, for which the binding result was “binds more weakly”.

For “TCCTGAAATGGATCAACAATTGTCTAATTATGGTATAGTATCTGGCGAAATCAAAGACGATATCATCCACACGTAATTAGTTTGACTATTAATACGAGGATTATCATTTGGATAAGGATTAACAAAGACAAAACACATTTTTGTTTTGGTGTTGAGCTAAAATAAGATATTTTGGCTCTCGCTATAAA (double strand) [pCAT1 box2 mutation probe]”, the binding entry is reported as “binds more weakly”.

With “TCCTGAAATGGATCAACAATTGTCTAATTATGGTATAGTATCTGGCGAAATCAAAGACGATATCATCCACACGTAATTAGTTTGACTATTAATACGAGGATTATCATTTGGATAAGGATTAACAAAGACAAAACACATACGTGTTTTGGTGTTGAGCTAAAATAAGATATTTTGGCTCTCGCTATAAA (double strand) [pCAT1 wild type probe (-296/-108)]”, the binding entry was “binds”.
